Article PMC3519878

Assay: SEC; HiLoad 16/60 Superdex 75 pg; protein purified by Ni2+-NTA injected at 0.5 mM

Substance | area of the peak at 63 min (elutes as a dimer would), percent of monomer peak area
mMaple | 6.7% vs. 25.8% of monomer peak area
mClavGR2 | 6.7% vs. 25.8% of monomer peak area
